Where “and” joins values, the source holds several entries; their conditions need not be identical. Equal values may be shown once.
What was measured:
[1] = target: T1, human PD-1, full-length, expressed on cells (human (Homo sapiens), UniProt Q15116 25-288); experiment: cell-based or functional assay
[2] = target: T1, human PD-1, full-length, expressed on …; experiment: cell-based or functional assay; remark: listed apart in the source

T1 sequence (Q15116 25-288): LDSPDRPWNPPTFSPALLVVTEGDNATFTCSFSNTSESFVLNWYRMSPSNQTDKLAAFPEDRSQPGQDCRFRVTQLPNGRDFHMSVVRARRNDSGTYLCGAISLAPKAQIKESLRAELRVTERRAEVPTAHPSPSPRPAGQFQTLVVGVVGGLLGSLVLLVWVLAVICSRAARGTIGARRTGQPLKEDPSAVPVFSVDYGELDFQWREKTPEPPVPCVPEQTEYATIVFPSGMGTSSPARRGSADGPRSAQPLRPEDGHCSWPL

- EC50 in the antigen-specific proliferation assay (CD8+ T-cell expansion index) [1]: 0.0124 µg/mL and 0.0837 nM
- EC50 of PD-1/PD-L1 checkpoint blockade, bioluminescent cell-based reporter assay [2]: 0.165 µg/mL and 1.12 nM
B1: IgG1-PD1 (antibody)
heavy: QVQLVESGGGLVQPGTSLRLSCSVSGFSLYSYNMGWVRQAPGKGLEYIGIISGGTIGHYASWAKGRFTISRDTSKTTLYLQMNSLTTEDTATYFCARAFYDDYDYNVWGPGTLVTVSSASTKGPSVFPLAPSSKSTSGGTAALGCLVKDYFPEPVTVSWNSGALTSGVHTFPAVLQSSGLYSLSSVVTVPSSSLGTQTYICNVNHKPSNTKVDKRVEPKSCDKTHTCPPCPAPEFERGPSVFLFPPKPKDTLMISRTPEVTCVVVDVSHEDPEVKFNWYVDGVEVHNAKTKPREEQYNSTYRVVSVLTVLHQDWLNGKEYKCKVSNKALPAPIEKTISKAKGQPREPQVYTLPPSREEMTKNQVSLTCLVKGFYPSDIAVEWESNGQPENNYKTTPPVLDSDGSFFLYSKLTVDKSRWQQGNVFSCSVMHEALHNHYTQKSLSLSPG
light: AIQLTQSPSSLSASVGGTVTITCQSSQSVYGNNQLSWYQQKPGQPPKLLIYQASKLETGVPSRFRGSGSGTQFTLTISSLQSEDFATYYCAGGYSSSSDTTFGGGTEVVVKRTVAAPSVFIFPPSDEQLKSGTASVVCLLNNFYPREAKVQWKVDNALQSGNSQESVTEQDSKDSTYSLSSTLTLSKADYEKHKVYACEVTHQGLSSPVTKSFNRGEC

Reference: patent publication US20230365693A1 (BIONTECH, published 2023)
